Experiments:
CCL5 26-91 [1] = target: CCL5 26-91 (UniProt P13501); experiment: MicroScale Thermophoresis, earlier independent purification from SF9 cells
CCL5 26-91 [2] = target: CCL5 26-91 (UniProt P13501); experiment: MicroScale Thermophoresis, labeled receptor, ligand titrated, in 50% human serum
CCL5 26-91 [3] = target: CCL5 26-91 (UniProt P13501); experiment: MicroScale Thermophoresis, labeled receptor, ligand titrated, in buffer (1x PBS, 5 mM DTT)
CXCL12 24-88 [4] = target: CXCL12 24-88 (UniProt P48061); experiment: MicroScale Thermophoresis, labeled receptor, ligand titrated, in 50% human serum
Sequence of CXCL12 24-88 (P48061 24-88 limits assumed, form in doubt): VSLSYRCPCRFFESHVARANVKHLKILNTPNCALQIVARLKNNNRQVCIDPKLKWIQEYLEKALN

CXCL12 24-88 [5] = target: CXCL12 24-88 (UniProt P48061); experiment: MicroScale Thermophoresis, labeled receptor, ligand titrated, in buffer (1x PBS, 5 mM DTT)
CXCL12 24-88 [6] = target: CXCL12 24-88 (UniProt P48061); experiment: MicroScale Thermophoresis, earlier independent purification and refolding from E. coli inclusion bodies
CXCL12 24-88 [7] = target: CXCL12 24-88 (UniProt P48061); experiment: MicroScale Thermophoresis, later independent purification and refolding from E. coli inclusion bodies

Sequence of CCL5 26-91 (P13501 26-91 limits assumed, form in doubt): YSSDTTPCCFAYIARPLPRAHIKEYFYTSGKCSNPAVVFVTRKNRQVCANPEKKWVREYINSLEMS

Binder | Kd (CCL5 26-91 [1]) [nM] | Kd (CCL5 26-91 [2]) [nM] | Kd (CCL5 26-91 [3]) [nM] | Kd (CXCL12 24-88 [4]) [nM] | Kd (CXCL12 24-88 [5]) [nM] | Kd (CXCL12 24-88 [6]) [nM] | Kd (CXCL12 24-88 [7]) [nM]
CCR5^QTY (receptor, not shown: small tags and cut ends, Receptor labelled with NT647 dye (RED-NHS, on amines) for MST; sites not specified) MDYQVSSPIYDINYYTSEPCQKINVKQIAARQQPPQYSQTFTYGFTGNMQTTQTQINCKRLKSMTDIYLQNQAISDQYYQQTTPYWAHYAAAQWDFGNTMCQQQTGQYFTGYYSGTYYTTQQTTDRYLAVVHAVFALKARTTTYGTTTSTTTWTTATYASQPGTTYTRSQKEGLHYTCSSHFPYSQYQFWKNFQTLKITIQGQVQPQQTMVTCYSGTQKTLLRCRNEKKRHRAVRQTFTTMTTYYQYWAPYNTTQQLNTFQEFFGLNNCSSSNRLDQAMQVTETQGMTHCCTNPTIYAYVGEKFRNYLLVFFQKHIAKRFCKCCSIFQQEAPERASSVYTRSTGEQEISVGL | 42 | 45.9 | 33.9 | – | – | – | –
CXCR7^QTY (receptor, not shown: small tags and cut ends, The receptor was labelled with NT647 (RED-NHS dye on lysines, positions not defined) for MST. The letters do not carry this.) MDLHLFDYSEPGNFSDISWPCNSSDCIVVDTVMCPNMPNKSTQQYTQSYTYTYTYTTGMTANSVVVWVNIQAKTTGYDTHCYTQNQATADQWTTQTTPTWTTSLVQHNQWPMGELTCKTTHQTYSTNQYGSTYYQTCMSVDRYLSITYFTNTPSSRKKMVRRTTCTQTWQQAYCTSQPDTYYQKTVTSASNNETYCRSFYPEHSIKEWLIGMEQTSTTQGYATPYSTTATYYYQLARAISASSDQEKHSSRKTTYSYTTTYQTCWQPYHTATQLDIFSILHYIPFTCRLEHALFTAQHTTQCQSQTHCCTNPTQYSYTNRNYRYELMKAFIFKYSAKTGLTKLIDASRVSETEYSALEQSTK | – | – | – | 6.6 | 2.2 | – | –
CXCR4^QTY (receptor, not shown: small tags and cut ends, Receptor labelled with NT647 dye (RED-NHS, on amines) for MST; sites not specified) MEGISIYTSDNYTEEMGSGDYDSMKEPCFREENANFNKTYQPTTYSTTYQTGTTGQGQTTQTMGYQKKQRSMTDKYRQHQSTADQQYTTTQPYWATDATANWYFGNFQCKATHTTYTTQQYSSTQTQAYTSQDRYLAIVHATNSQRPRKQQAEKTTYTGTWTPAQQQTTPDYTYANVSEADDRYICDRFYPNDLWTTTYQYQHTMTGQTQPGTTTQSCYCTTTSKLSHSKGHQKRKALKTTTTQTQAYYACWQPYYTGTSTDSFILLEIIKQGCEFENTVHKWTSTTEAQAYYHCCQQPTQYAYQGAKYKTSAQHAQTSTSRGSSQKTQSKGKRGGHSSTSTESESSSFHSS | – | – | – | 44.7 | 11.2 | 17 | 13

Source: patent US20190353654A1
